Source: patent US20220033501A1 (SHANGHAI PHARMAEXPLORER, published 2022)

T1: human TIM-3 on CHOK1 stable cell line (CHOK1-hTIM-3) (human, UniProt Q8TDQ0 22-301)
T1 sequence: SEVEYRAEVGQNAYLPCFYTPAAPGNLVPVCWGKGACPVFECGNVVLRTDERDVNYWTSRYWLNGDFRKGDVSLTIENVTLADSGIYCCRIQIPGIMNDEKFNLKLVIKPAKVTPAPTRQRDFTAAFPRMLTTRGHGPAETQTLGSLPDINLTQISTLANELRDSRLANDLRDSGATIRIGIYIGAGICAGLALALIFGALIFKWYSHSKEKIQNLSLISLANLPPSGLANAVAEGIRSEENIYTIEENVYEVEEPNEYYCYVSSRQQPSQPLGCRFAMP

T2: murine TIM-3 extracellular domain protein with hFc tag (mTIM-3-hFc) (mouse, UniProt Q8VIM0 29-191)
T2 construct: also called mouse TIM-3 extracellular domain protein; not shown: human IgG Fc fragment (hFc) of the pCpC vector
T2 chain: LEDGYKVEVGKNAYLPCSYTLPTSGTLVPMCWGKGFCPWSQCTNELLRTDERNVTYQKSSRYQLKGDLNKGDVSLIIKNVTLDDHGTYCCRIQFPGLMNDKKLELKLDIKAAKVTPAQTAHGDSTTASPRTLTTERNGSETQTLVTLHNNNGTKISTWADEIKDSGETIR

T3: human TIM-3 extracellular domain protein with hFc tag (hTIM-3-hFc) (human, UniProt Q8TDQ0 22-200)
T3 construct: not shown: human IgG Fc fragment (hFc) of the pCpC vector
T3 sequence: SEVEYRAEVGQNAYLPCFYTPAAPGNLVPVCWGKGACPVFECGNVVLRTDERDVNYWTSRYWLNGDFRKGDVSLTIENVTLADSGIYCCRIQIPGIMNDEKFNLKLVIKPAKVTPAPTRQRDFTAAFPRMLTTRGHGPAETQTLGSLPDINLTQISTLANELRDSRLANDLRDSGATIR

T4: monkey TIM-3 extracellular domain protein with hFc tag (cTIM-3-hFc) (monkey)
T4 construct: not shown: human IgG Fc fragment (hFc) of the pCpC vector
T4 chain: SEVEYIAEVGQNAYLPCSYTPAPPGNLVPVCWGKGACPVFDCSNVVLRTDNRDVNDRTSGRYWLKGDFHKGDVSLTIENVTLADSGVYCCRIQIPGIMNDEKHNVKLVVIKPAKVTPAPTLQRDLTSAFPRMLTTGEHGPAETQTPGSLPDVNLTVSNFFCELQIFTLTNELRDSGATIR


Experiments:
[1] = biological target: T1, human TIM-3 on CHOK1 stable cell line …; assay: FACS, CHOK1-hTIM-3 cells, 0.064 nM antibody
[2] = biological target: T2, murine TIM-3 extracellular domain …; assay: ELISA, coated mouse TIM-3 ECD protein, 0 nM antibody
[3] = biological target: T3, human TIM-3 extracellular domain …; assay: ELISA, coated human TIM-3 ECD protein, 0.0007 nM antibody
[4] = biological target: T2, murine TIM-3 extracellular domain …; assay: ELISA, coated mouse TIM-3 ECD protein, 0.0067 nM antibody
[5] = biological target: T2, murine TIM-3 extracellular domain …; assay: ELISA, coated mouse TIM-3 ECD protein, 0.0667 nM antibody
[6] = biological target: T4, monkey TIM-3 extracellular domain …; assay: ELISA, coated monkey TIM-3 ECD protein, 0.0667 nM antibody

Binder	Mean fluorescence intensity [1]	OD450 [2]	OD450 [3]	OD450 [4]	OD450 [5]	OD450 [6]
18D2H2 fully human TIM-3 antibody (human IgG4, kappa) (antibody, V domains shown) VH: EVQLVESGGDLVQPGGSLRLSCAASGFTFSTYWMTWVRQAPGRGLEWVANIKQDGSAKYYVDSVKGRFTLSRDDAKNSLYLQMNSLRAEDTAVYYCARGSNWFDYWGQGTLVTVSS VL: ETVMTQSPATLSVSPGERATLSCRANQNVYSNLAWYQQKPGQAPRLLIYDASTRATGFPARFSGSGSGTEFTLTISSLQSEDFAVYYCQQYNNWPLTFGGGTKVEIK	32.9	0.22	0.11	0.22	0.22	1.56
7A4F10 fully human TIM-3 antibody (human IgG4, kappa) (antibody, V domains shown) VH: EVQLLESGGGLVQPGGSLRLSCAASGFTFRTHLISWVRQAPGKGLEWVAAITGSGGSTYYADSVKGRFIISRDNSKNTLFLQMNSLRAEDTAVYYCAKDGGSGSYDDFWGQGTLVTVSS VL: ETVLTQSPVTLSLSPGERATLSCRASQSVGSYLAWYQQKPGQAPRLLIYDASNRATGIPARFSGSGSGTDFTLTISSLEPEDFAVYYCQQRSNWPPTFGQGTKVEIK	28.8	0.23	0.11	0.23	0.22	0.68

Results, then the binder that gave them:

Mean fluorescence intensity [1]	OD450 [2]	OD450 [3]	OD450 [4]	OD450 [5]	OD450 [6]	Binder
27	0.24	0.1	0.23	0.24	1.37	39E5H1 fully human TIM-3 antibody (human IgG4, kappa) (antibody, V domains shown) VH: EVQLVESGGGLVQPGGSLRLSCAASGFTFSSYWMSWVRQAPGKGLEWVANIKRGGSERYYVDSVKGRFTISGDNAKNSVYLQMNSLRAEDTAVYYCARGSNWFDPWGQGTLVTVSS VL: ETVMTQSPAILSVSPGERATLSCRASQSVYSNLAWYQQKLGQAPRLLIYDASTRATGIPARFSGSGSGTEFTLTISSLQSEDFAVYYCQQYNNWPITFGQGTRLEIK
22.2	0.24	0.11	0.24	0.25	1.71	34B6D8 fully human TIM-3 antibody (human IgG4, kappa) (antibody, V domains shown) VH: EVQLVESGGGLVQPGGSLRLSCAASGFTFSTYWMTWVRQAPGKRLEWVANIKQGGGDKYYVDSVKGRFTISTDNAKNSLYLQMNSLRAEDTAVYYCARGSNWFDPWGQGTLVTVSS VL: EIVMTQSPATLSMSPGERATLSCRASQSVYDNLAWYQQKPGQAPRLLIYGASTRATGIPARFSGSGSGTEFTLTISSLQSEDFALYYCQQYTHWPITFGQGTRLEIK
